Test [1] deals with non-neddylated CUL1/RBX1 (StrepII2x-CUL1/RBX1), wild type (human) (UniProt Q13616). Kind of test: SPR; StrepII2x-CUL1/RBX1 (non-neddylated) captured on a Strep-Tactin CM5 chip (~100 RU), CSN injected in single cycle (40-5120 nM, 180 s contact), 25 C, HBS-P+ with 1 mM TCEP; steady-state fit, 1:1 Langmuir. In general terms: In SPR one partner is held on a chip, and binding of the other changes the refractive index at the surface.

The target of test [2] is neddylated CUL1/RBX1 (StrepII2x-^N8CUL1/RBX1), wild type (UniProt Q13616). The test can be described thus: SPR; StrepII2x-^N8CUL1/RBX1 captured on a Strep-Tactin CM5 chip (~100 RU), CSN injected in single cycle (0.625-80 nM, 80 s contact), 25 C, 10 mM HEPES pH 7.4, 150 mM NaCl, 0.05% Tween 20, 1 mM TCEP; steady-state fit, 1:1 Langmuir.
The target of test [3] is ^P32-His-PKA-N8CUL1/RBX1 (CUL1/RBX1 neddylated with His-PKA-NEDD8, 32P-labelled) (UniProt Q13616).
Chain of ^P32-His-PKA-N8CUL1/RBX1 (CUL1/RBX1 neddylated with His-PKA-NEDD8, 32P-labelled) (Q13616 whole entry, chain 1 of 3): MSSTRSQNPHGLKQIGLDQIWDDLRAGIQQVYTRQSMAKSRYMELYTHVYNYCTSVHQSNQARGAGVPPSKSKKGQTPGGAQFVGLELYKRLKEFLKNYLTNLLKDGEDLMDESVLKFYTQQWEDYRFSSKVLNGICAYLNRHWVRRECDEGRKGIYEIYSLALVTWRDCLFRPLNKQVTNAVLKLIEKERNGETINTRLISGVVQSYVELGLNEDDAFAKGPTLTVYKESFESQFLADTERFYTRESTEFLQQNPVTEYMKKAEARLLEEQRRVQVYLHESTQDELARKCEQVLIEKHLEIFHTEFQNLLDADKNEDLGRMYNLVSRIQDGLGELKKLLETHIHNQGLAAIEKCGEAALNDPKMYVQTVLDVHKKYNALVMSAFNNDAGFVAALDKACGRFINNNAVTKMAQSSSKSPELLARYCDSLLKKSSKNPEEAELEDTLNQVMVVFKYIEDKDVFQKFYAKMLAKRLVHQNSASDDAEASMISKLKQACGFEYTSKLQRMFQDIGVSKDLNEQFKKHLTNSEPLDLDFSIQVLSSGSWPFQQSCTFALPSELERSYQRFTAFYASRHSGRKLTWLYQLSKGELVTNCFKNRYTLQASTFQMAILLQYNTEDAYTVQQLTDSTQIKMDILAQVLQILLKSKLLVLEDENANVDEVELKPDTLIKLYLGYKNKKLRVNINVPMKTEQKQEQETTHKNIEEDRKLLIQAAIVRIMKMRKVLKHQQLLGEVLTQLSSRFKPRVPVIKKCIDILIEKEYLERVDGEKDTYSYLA
Chain of ^P32-His-PKA-N8CUL1/RBX1 (CUL1/RBX1 neddylated with His-PKA-NEDD8, 32P-labelled) (P62877 whole entry, chain 2 of 3, further chain): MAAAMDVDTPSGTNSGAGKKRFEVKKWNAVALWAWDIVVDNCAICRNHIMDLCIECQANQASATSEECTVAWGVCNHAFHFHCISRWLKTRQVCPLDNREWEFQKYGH
Chain of ^P32-His-PKA-N8CUL1/RBX1 (CUL1/RBX1 neddylated with His-PKA-NEDD8, 32P-labelled) (Q15843 1-76, chain 3 of 3, further chain): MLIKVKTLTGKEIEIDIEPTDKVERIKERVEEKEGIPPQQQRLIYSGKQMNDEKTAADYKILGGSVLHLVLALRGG

Chain of neddylated CUL1/RBX1 (StrepII2x-^N8CUL1/RBX1), wild type (Q13616 whole entry, chain 1 of 3): as the sequence (Q13616 whole entry, chain 1 of 3) above
Chain of neddylated CUL1/RBX1 (StrepII2x-^N8CUL1/RBX1), wild type (P62877 whole entry, chain 2 of 3, further chain): as the sequence (P62877 whole entry, chain 2 of 3, further chain) above
Chain of neddylated CUL1/RBX1 (StrepII2x-^N8CUL1/RBX1), wild type (Q15843 1-76, chain 3 of 3, further chain): as the sequence (Q15843 1-76, chain 3 of 3, further chain) above
Chain of non-neddylated CUL1/RBX1 (StrepII2x-CUL1/RBX1), wild type (human) (Q13616 whole entry, chain 1 of 2): as the sequence (Q13616 whole entry, chain 1 of 3) above
Chain of non-neddylated CUL1/RBX1 (StrepII2x-CUL1/RBX1), wild type (human) (P62877 whole entry, chain 2 of 2, further chain): as the sequence (P62877 whole entry, chain 2 of 3, further chain) above

One may read the Kd as the equilibrium constant for the complex coming apart. Read a low Kd as higher affinity. Turning to “8CSN^5H138A (CSN^5H138A complex without CSNAP: CSN1-8, CSN5 H138A) (from UniProt Q13098 1-491; P61201 1-443; Q9UNS2 1-423; Q9BT78 1-406; Q92905 1-334; Q7L5N1 1-327; Q9H9Q2 1-264; Q99627 1-209)”, the dissociation constant (Kd) was 0.09 µM in test [1] and 0.006 µM in test [2].
“CSN^5T105F (9CSN with CSN5 T105F) (from UniProt Q13098 1-491; P61201 1-443; Q9UNS2 1-423; Q9BT78 1-406; Q92905 1-334; Q7L5N1 1-327; Q9H9Q2 1-264; Q99627 1-209; Q8WXC6 1-57) (complex)” yielded an in vitro deneddylation activity, normalised to CSN^5WT in test [3] above 50 % reduction.
